Experimental data as given in article PMC5161713.

Columns and labels:
[1] = target: wild-type CfaB, mature form, with N-terminal hexahistidine tag (^wtCfaB, (his)6CfaB) (enterotoxigenic Escherichia coli (ETEC)) (UniProt E3PPC4)
[2] = target: wild-type CfaB, mature form, with N-terminal hexahistidine tag (^wtCfaB, (his)6CfaB) (enterotoxigenic Escherichia coli (ETEC)) (UniProt E3PPC4); assay: pull-down

Substance: wild-type CfaA with C-terminal Strep-tag (^wtCfaA, CfaA(Strep)) (natural protein)
- kf, fast-phase rate constant of chaperone-assisted refolding of denatured CfaB [1]: 0.54 s⁻¹
- ratio between CfaA and CfaB (densitometry of the pull-down) [2]: 0.6
